Measured values taken from patent publication US20100015685A1, “LACTOBACILLUS N-DEOXYRIBOSYL TRANSFERASES, CORRESPONDING NUCLEOTIDE SEQUENCES AND THEIR USES” (INSTITUT PASTEUR, priority 2001, published 2010).

B1: ntd: N-deoxyribosyltransferase of SEQ ID No. 6 coded by the ntd Lf gene of Lactobacillus fermentum (protein)
chain: LKNTDPVANTKIYLATSFFNEEQRARIPQALAQLEANPTVGVVHQPFDFQYKDARVDSDPAGVFGSLEWQIATYNNDLNAVGTSDVCVALYDMDQIDEGICMEIGMFVALHKPIVLLPFTKKDKSAYEANLMLARGVTTWLEPNDFSPLKDFNFNHPMAQPFPPFKVF
modifications: Lactobacillus fermentum NTD
B2: ptd Lh: N-deoxyribosyltransferase of SEQ ID No. 4 coded by the ptd Lh gene of Lactobacillus helveticus (purine deoxyribosyltransferase) (protein)
chain: MKAVVPTGKIYLGSPFYSDAQRERAAKAKELLAKNLSIAHVFFPFDDGFTDPDEKNPEIGGIRSMVWRDATYQNDLTGISNATCGVFLYDMDQLDDGSAFEIGFMRAMHKPVILVPFTEHPEKEKKMNLMIAQGVTTIIDGNTEFEKLADYNFNECPFNPVRGYGIY
modifications: Lactobacillus helveticus PTD
B3: ntd Lh: N-deoxyribosyltransferase of SEQ ID No. 2 (or SEQ ID No. 14) coded by the ntd Lh gene of Lactobacillus helveticus (protein)
chain: MNKKKTLYFGAGWFNEKQNKAYKEAMAALKENPTVDLENSYVPLENQYKGIRIDEHPEYLHNIEWASATYHNDLVGIKTSDVMLGVYLPEEEDVGLGMELGYALSQGKYILLVIPDEDYGKPINLMSWGVCDNAIKISELKDFDFNKPRYNFYDGAVY
modifications: Lactobacillus helveticus NTD

Tested on: PAK 26 strain
Experiment: Nutritional screening in PAK 26 strain to distinguish deoxyribosyltransferase I and II activities
Type: cell-based, Escherichia coli
Conditions: plasmid of selected transforming clones; deoxyguanosine and thymine as sources of guanine and thymidine
From the text: Preferably this strain is incapable of growing in the presence of deoxyguanosine as a source of guanine. In preferred manner, it is the PAK 6 strain. • (ii) transfer of exogenous DNA, preferably in the form of an expression vector, into the bacterium, the exogenous DNA being capable of comprising a sequence coding for a deoxyribosyltransferase. • (iii) culture of the bacteria obtained in Stage (ii) on a medium containing deoxyguanosine. • (iv) isolation of the exogenous DNA transferred into the bacteria of Stage (iii) which have developed on the medium containing deoxyguanosine. The present invention also provides a nutritional screening for distinguishing the deoxyribosyltransferase I and II activities, preferably in particular for distinguishing between the ntd and ptd polypeptides according to the invention. This second screening comprises the stages of: • (i) obtaining a bacterial strain such as for example Escherichia coli, auxotrophic for guanine and thymidine. Preferably, this strain is incapable of growing in the presence of guanine and thymidine. In preferred manner, it is the PAK 26 strain (Δ guaBguaA::Δdeo-11 ΔthyA::erm Δ (udp-metE) zif9::Tn10) is auxotrophic for methionine, guanine and thymidine. • (ii) transfer of the exogenous DNA, preferably in the form of an expression vector, into the bacterium, the exogenous DNA being capable of comprising a sequence coding for a deoxyribosyltransferase I or II. • (iii) culture of the bacteria obtained in Stage (ii) on a medium containing deoxyguanosine, then determination of whether the bacteria are growing or not. If the bacteria are growing, then the exogenous DNA codes for a deoxyribosyltransferase II activity which is expressed in said bacterium. If the bacteria are not growing, then the exogenous DNA is capable of coding for a deoxyribosyltransferase I activity. Other characteristics and advantages of the invention are clear from the rest of the description, with examples represented hereafter. […]

Molecule	Class of N-deoxyribosyltransferase activity (I or II)
B1	Class II N-deoxyribosyltransferase activity
B2	Class I N-deoxyribosyltransferase activity
B3	Class II N-deoxyribosyltransferase activity

Tested on: N-deoxyribosyltransferase activity
Experiment: Enzymatic activity of corresponding raw extracts (in vitro)
Type: biochemical
Design: key: (+) growth; (−) absence of growth
Conditions: substrates deoxycytidine + adenine

Molecule	Enzymatic activity of raw extracts, dC + A
B1	+
B2	−
B3	+

Same assay, conditions: substrates deoxycytidine + thymine

Molecule	Enzymatic activity of raw extracts, dC + T
B1	+
B2	−
B3	+

Same assay, conditions: substrates deoxyguanosine + adenine

Molecule	Enzymatic activity of raw extracts, dG + A
B1	+
B2	+
B3	+

Tested on: PAK 6 strain
Experiment: Growth of the PAK 6 strain on a glucose mineral medium (in vivo nutritional screening)
Type: cell-based, Escherichia coli
Design: key: (+) growth; (−) absence of growth
Conditions: glucose mineral medium with adenine
From the text: A functional screening allowing the production of guanine to be selected was established on E. coli by deleting the two genes of the guaBA operon which controls the conversion of IMP into XMP then into GMP and also those of the deoCABD operon which controls the degradation of deoxynucleosides to give the PAK 6 strain. The E. coli genome specifies an activity allowing the base G to be converted into GMP (guanine phosphoribosyltransferase encoded by the gpt gene), and also an activity allowing the base G to be released from the dR-G deoxynucleoside (purine nucleoside phosphorylase encoded by the deoD gene in the deo operon). The PAK 6 strain thus has a requirement for guanine (G) which cannot be satisfied by the addition of deoxyguanosine (dR-G). The use of deoxyguanosine (dR-G) can however be selected if an N-deoxyribosyltransferase activity is expressed in the PAK6 strain in order to carry out the exchange: dR-G+A<->dR-A+G.
This exchange between two purine bases can be catalyzed by the two enzyme classes.
DNA fragments of a size comprised between 1 and 2 kb obtained by partial digestion (AluI) of L. helveticus CNRZ 32 were ligated in a ColE1 plasmid (of pUC type digested by SmaI and desphosphorylated) and the mixture is used to transform the PAK6 strain. The transforming clones were selected in a glucose mineral medium to which deoxyguanosine (dR-G) and adenine (A) have been added to the final concentration of 0.3 mM.

Molecule	Growth of the PAK 6 strain, A
B1	−
B2	−
B3	−

Same assay, conditions: glucose mineral medium with deoxyguanosine + adenine

Molecule	Growth of the PAK 6 strain, dG + A
B1	+
B2	+
B3	+

Same assay, conditions: glucose mineral medium with guanine

Molecule	Growth of the PAK 6 strain, G
B1	+
B2	+
B3	+
